Measurements published in article PMC10235943.

Key:
endogenous IP3R1 = endogenous IP3R1 (UniProt Q14643); experiment: sucrose density gradient fractionation
[1] = target: transiently expressed IP3R1 (wild type) (human) (UniProt Q14643); experiment: sucrose density gradient fractionation

endogenous IP3R1, Q14643-1 1-2758 (receptor), sequence (Q14643 whole entry): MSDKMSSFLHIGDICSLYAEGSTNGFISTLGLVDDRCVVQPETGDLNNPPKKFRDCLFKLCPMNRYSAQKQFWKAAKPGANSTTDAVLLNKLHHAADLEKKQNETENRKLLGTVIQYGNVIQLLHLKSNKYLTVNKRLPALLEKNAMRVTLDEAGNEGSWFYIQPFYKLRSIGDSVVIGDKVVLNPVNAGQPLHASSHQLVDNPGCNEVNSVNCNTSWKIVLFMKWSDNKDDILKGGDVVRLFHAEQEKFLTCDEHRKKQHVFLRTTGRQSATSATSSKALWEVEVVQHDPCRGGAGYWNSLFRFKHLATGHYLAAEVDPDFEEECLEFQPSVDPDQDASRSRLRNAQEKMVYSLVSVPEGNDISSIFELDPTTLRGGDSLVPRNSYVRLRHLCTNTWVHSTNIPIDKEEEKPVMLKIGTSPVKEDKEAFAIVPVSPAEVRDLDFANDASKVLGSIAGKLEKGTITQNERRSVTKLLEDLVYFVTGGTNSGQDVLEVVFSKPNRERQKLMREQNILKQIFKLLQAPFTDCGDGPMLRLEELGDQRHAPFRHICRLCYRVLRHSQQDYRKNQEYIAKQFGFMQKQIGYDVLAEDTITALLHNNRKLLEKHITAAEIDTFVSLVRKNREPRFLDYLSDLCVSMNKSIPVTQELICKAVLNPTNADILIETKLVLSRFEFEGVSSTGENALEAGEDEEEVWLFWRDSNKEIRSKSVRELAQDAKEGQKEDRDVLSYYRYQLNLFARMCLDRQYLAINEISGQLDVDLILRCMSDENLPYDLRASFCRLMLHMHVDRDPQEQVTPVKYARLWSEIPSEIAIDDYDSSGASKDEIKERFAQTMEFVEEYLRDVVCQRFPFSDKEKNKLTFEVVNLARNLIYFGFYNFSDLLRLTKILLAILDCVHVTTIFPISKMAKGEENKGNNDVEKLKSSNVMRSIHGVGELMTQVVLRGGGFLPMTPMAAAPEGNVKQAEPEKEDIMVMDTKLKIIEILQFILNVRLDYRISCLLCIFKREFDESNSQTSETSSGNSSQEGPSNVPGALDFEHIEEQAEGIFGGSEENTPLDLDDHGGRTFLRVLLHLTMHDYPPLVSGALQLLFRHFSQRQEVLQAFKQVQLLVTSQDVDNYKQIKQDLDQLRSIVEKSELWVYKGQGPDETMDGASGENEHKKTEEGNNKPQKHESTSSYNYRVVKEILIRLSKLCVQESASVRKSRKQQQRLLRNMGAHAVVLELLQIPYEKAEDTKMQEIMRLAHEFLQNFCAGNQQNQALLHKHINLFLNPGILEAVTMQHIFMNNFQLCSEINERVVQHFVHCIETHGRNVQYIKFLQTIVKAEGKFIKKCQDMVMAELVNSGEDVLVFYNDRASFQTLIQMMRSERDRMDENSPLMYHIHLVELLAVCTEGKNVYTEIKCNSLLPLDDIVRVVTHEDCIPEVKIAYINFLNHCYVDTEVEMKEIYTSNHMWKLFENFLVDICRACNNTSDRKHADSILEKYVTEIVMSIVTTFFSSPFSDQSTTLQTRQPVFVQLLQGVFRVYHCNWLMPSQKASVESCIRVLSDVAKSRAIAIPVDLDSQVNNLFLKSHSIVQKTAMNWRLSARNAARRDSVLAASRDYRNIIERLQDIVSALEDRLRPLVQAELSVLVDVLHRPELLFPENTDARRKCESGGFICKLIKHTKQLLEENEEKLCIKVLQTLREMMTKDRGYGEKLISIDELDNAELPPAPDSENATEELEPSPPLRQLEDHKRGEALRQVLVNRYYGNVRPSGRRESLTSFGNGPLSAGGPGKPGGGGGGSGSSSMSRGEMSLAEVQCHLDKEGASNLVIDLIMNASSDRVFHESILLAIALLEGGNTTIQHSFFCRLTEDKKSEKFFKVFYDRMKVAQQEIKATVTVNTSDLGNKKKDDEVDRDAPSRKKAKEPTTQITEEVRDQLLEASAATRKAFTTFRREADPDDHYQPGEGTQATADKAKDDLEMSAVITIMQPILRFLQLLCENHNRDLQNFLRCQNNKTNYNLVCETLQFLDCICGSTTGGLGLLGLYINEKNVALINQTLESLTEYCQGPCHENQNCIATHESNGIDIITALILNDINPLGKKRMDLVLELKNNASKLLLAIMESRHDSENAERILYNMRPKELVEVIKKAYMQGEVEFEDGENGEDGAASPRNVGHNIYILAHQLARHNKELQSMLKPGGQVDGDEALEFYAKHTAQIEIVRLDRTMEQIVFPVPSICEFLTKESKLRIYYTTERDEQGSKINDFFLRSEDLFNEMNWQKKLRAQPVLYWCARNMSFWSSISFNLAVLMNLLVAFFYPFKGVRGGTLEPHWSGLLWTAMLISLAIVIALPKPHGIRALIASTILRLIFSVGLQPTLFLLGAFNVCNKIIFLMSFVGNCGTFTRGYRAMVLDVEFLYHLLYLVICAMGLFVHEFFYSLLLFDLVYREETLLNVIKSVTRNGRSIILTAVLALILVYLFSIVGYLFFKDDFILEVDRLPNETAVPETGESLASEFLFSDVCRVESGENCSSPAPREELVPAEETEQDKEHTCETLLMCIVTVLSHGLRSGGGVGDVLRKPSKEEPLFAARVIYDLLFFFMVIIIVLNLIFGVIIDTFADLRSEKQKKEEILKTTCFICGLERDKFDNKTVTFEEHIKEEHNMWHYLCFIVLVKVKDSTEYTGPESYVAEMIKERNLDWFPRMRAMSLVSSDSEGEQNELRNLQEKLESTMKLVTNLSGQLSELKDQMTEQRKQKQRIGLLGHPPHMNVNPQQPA

Row | Substance | stoichiometry N (endogenous IP3R1) | stoichiometry N [1]
1 | endogenous IP3R1, Q14643-1 1-2758 (receptor) | 4 | –
2 | transiently expressed IP3R1 (wild type), Q14643-1 1-2758 (receptor) | – | 4
